Measurements taken from article PMC3237003 (Toxins, 2011).

B1: sdAb Abr2 (VHH)
VHH: DVQLQASGGGLVQAGGSLVLSCTASGRSVSSLAMGWLRQVPGKERELVGSISLSGGRTYYADSMKGRFTISKDNAKNTVALQMNSLRPEDTAVYYCAARDAARDYAPLNFDTWGQGTQVTVSS
notes: source: E. coli Rosetta, soluble sdAb expression vector
B2: sdAb Abr5 (VHH)
VHH: EVQLQASGGGLVQAGGSLRLSCVVSGLSVGLNPVAWYRQAPGQQRDWVARMSMRGLTDYPDSLKGRAIISRDNAKNTVSLQMDSLKPEDTAVYFCKVGLSYWGQGTQVTVSS
notes: as for B1
B3: sdAb Abr1 (VHH)
VHH: EVQLQASGGGLVQAGGSLRLSCAASGSDGSLEIMGWYRQAPGKQRELVARATSGGLKNYADSVKGRFTISGDLDKNTVYLQMNSLQPEDTGVYVCHLGVVASTYRDYWGQGTQVTVSS
notes: as for B1

What was measured:
[1] = biological target: T1, staphylococcal enterotoxin B (SEB) (Staphylococcus aureus, strain , UniProt P01552); assay: Luminex direct binding (microsphere fluorescence immunoassay); conditions: both partners purified
T1 construct: source: bought: Toxin Technology, Inc

[2] = biological target: bovine serum albumin (BSA) (Bos taurus, UniProt P02769); assay: as above; conditions: both partners purified
Sequence of bovine serum albumin (BSA) (P02769 25-607): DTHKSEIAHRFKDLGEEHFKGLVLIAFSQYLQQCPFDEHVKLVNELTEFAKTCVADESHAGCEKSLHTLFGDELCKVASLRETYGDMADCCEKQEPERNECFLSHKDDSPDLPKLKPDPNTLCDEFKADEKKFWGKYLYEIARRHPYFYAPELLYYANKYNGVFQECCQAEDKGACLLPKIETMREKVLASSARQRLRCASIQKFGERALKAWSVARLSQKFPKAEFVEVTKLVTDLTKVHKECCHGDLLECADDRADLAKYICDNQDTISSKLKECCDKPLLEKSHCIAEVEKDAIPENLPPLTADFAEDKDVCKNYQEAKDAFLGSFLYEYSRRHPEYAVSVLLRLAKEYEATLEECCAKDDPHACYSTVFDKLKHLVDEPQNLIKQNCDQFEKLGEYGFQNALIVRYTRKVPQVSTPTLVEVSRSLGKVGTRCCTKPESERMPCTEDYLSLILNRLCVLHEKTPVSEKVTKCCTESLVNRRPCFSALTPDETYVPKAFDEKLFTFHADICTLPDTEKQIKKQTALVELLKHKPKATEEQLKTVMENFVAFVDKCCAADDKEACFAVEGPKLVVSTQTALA

T1 sequence (P01552 28-266): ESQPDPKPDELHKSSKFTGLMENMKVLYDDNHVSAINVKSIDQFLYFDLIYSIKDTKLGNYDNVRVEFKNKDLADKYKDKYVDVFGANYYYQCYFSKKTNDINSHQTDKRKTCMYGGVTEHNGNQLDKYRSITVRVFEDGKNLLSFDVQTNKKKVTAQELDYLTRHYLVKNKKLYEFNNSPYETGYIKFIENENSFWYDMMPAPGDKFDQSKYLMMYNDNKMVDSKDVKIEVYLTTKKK

Row | Binder | binding result [1] | binding result [2]
1 | B1 | no binding | no binding
2 | B2 | no binding | no binding
3 | B3 | no binding | no binding
